According to patent publication US20230201308A1, “TREATMENT OF CORONAVIRUS INFECTION WITH […]” (Eiger Biopharmaceuticals, Inc., priority 2020, published 2023):
Read-outs that look alike come from different tables or passages of the source.

Assays:
SARS-CoV-2 [1] = test: Second trial: outpatients with mild to moderate COVID-19, SARS-CoV-2 RNA viral load and clearance; format: in vivo, human
Method: Using the methods and criteria described above in Examples 1-3, a second trial was performed to assess interferon lambda for immediate antiviral therapy at diagnosis in COVID-19 infections. The second trial included a randomized trial of pegylated interferon lambda in outpatients with mild to moderate COVID-19 infection.
Thirty participants were randomly assigned to receive 180 mcg pegylated interferon lambda-1a, and 30 participants were assigned to receive a saline placebo. Patients were followed for 14 days. Nasopharyngeal samples were collected. The baseline SARS-CoV-2 viral load in the interferon lambda group was 6.2 log10 copies/mL and was 4.9 log10 copies/mL in the placebo group. In the interferon lambda group (19 subjects) and placebo (16 subjects) groups, there were a total of 35 subjects with viral loads great or equal to 6 log10 copies/mL.

SARS-CoV-2 MA = tested on: SARS-CoV-2 MA; design: species or system BALB/c mice; details: mouse, in vivo, sc
SARS-CoV-2 [2] = test: First trial: single 180 mcg dose vs placebo in 120 participants with COVID-19; format: in vivo, human
Method: Using the methods and criteria described above in Examples 1-3, a first trial was performed. In the first trial, 120 participants were enrolled; 70 (58.3%) were male, 75 (62.5%) identified as Latinx, and the median duration of symptoms prior to randomization was 5 days. Sixty participants were randomly assigned to receive 180 mcg pegylated interferon lambda-1a, and 60 participants were assigned to receive a placebo. […] Subjects viral samples were taken by oral pharyngeal swabs. The median time to cessation of viral shedding was 7 days in both arms (hazard ratio [HR] for duration of shedding 0.81 comparing Lambda vs. placebo; 95% confidence interval [CI] 0.56 to 1.19; p=0.29). No difference in time to resolution of symptoms was observed comparing interferon lambda vs. placebo (HR 0.94; 95% CI 0.64 to 1.39; p=0.76). Two serious adverse events were reported in each arm. Liver transaminase elevations were more common in the interferon lambda vs. placebo arm (15/60 vs 5/60; p=0.027).

[3] = for Aes: outside of the directed symptom categories
Method: Detailed directed and open-ended symptoms were assessed serially. Because of overlap between symptoms of COVID-19 and potential peginterferon-lambda Aes, symptoms were recorded and Aes were considered any symptom outside of the directed symptom assessment. Laboratory AE severity was graded using the Common Terminology Criteria for Adverse Events (CTCAE) Version 5.0.

[4] = baseline RNA above 10^6 copies/mL
[5] = baseline viral load below 10^6 copies/mL
[6] = Baseline Viral Load <10E6 copies/mL
[7] = Baseline Viral Load ≥10E6 copies/mL
[8] = n=30, listed as Peginterferon Lambda
[9] = n=30, listed as peginterferon-lambda

B1: pegylated interferon lambda-1a (protein)
chain: MKPTTTGKGCHIGRFKSLSPQELASFKKARDALEESLKLKNWSCSSPVFPGNWDLRLLQVRERPVALEAELALTLKVLEAAAGPALEDVLDQPLHTLHHILSQLQACIQPQPTAGPRPRGRLHHWLHRLQEAPKKESAGCLEASVTFNLFRLLTRDLKYVADGNLSLRTSTHPEST
modifications: PEG
notes: 180 mcg subcutaneous injection
OR of response (clearance) at Day 7 vs Placebo (SARS-CoV-2 [1]; Adjusted for Asymptomatic at baseline, all patients): 2.91 | OR of response (clearance) at Day 7 vs Placebo (SARS-CoV-2 [1]; Adjusted for Asymptomatic at baseline, ≥10E6 copies/mL): 0.00 | OR of response (clearance) at Day 7 vs Placebo (SARS-CoV-2 [1]; Adjusted for BMI, all patients): 2.37 | OR of response (clearance) at Day 7 vs Placebo (SARS-CoV-2 [1]; Adjusted for BMI, ≥10E6 copies/mL): 6.73 | OR of response (clearance) at Day 7 vs Placebo (SARS-CoV-2 [1]; Adjusted for IFNL4 genotype, all patients): 2.24 | OR of response (clearance) at Day 7 vs Placebo (SARS-CoV-2 [1]; Adjusted for IFNL4 genotype, ≥10E6 copies/mL): 7.66 | OR of response (clearance) at Day 7 vs Placebo (SARS-CoV-2 [1]; Adjusted for age, all patients): 2.48 | OR of response (clearance) at Day 7 vs Placebo (SARS-CoV-2 [1]; Adjusted for age, ≥10E6 copies/mL): 9.42 | OR of response (clearance) at Day 7 vs Placebo (SARS-CoV-2 [1]; Adjusted for comorbidity, all patients): 2.35 | OR of response (clearance) at Day 7 vs Placebo (SARS-CoV-2 [1]; Adjusted for comorbidity, ≥10E6 copies/mL): 10.46 | OR of response (clearance) at Day 7 vs Placebo (SARS-CoV-2 [1]; Adjusted for sex, all patients): 2.36 | OR of response (clearance) at Day 7 vs Placebo (SARS-CoV-2 [1]; Adjusted for sex, ≥10E6 copies/mL): 6.44 | OR of response (clearance) at Day 7 vs Placebo (SARS-CoV-2 [1]; Adjusted for viral load at baseline, all patients): 4.12 | OR of response (clearance) at Day 7 vs Placebo (SARS-CoV-2 [1]; Adjusted for viral load at baseline, ≥10E6 copies/mL): 8.16 | OR of response (clearance) at Day 7 vs Placebo (SARS-CoV-2 [1]; Adjusted for viral load with interaction, baseline 10E3 copies/mL): 1.45 | OR of response (clearance) at Day 7 vs Placebo (SARS-CoV-2 [1]; Adjusted for viral load with interaction, baseline 10E4 copies/mL): 1.88 | OR of response (clearance) at Day 7 vs Placebo (SARS-CoV-2 [1]; Adjusted for viral load with interaction, baseline 10E5 copies/mL): 2.43 | OR of response (clearance) at Day 7 vs Placebo (SARS-CoV-2 [1]; Adjusted for viral load with interaction, baseline 10E6 copies/mL): 3.14 | OR of response (clearance) at Day 7 vs Placebo (SARS-CoV-2 [1]; Adjusted for viral load with interaction, baseline 10E7 copies/mL): 4.05 | OR of response (clearance) at Day 7 vs Placebo (SARS-CoV-2 [1]; Adjusted for viral load with interaction, baseline 10E8 copies/mL): 5.23 | OR of response (clearance) at Day 7 vs Placebo (SARS-CoV-2 [1]; Adjusted for viral load with interaction, baseline 10E9 copies/mL): 6.76 | OR of response (clearance) at Day 7 vs Placebo (SARS-CoV-2 [1]; Crude, all patients): 2.32 | OR of response (clearance) at Day 7 vs Placebo (SARS-CoV-2 [1]; Crude, ≥10E6 copies/mL at baseline): 6.25 | viral load decline greater than in placebo group (SARS-CoV-2 [1]; Day 3, all patients): 0.82 log copies/mL | viral load decline greater than in placebo group (SARS-CoV-2 [1]; Day 5, all patients): 1.67 log copies/mL | viral load decline greater than in placebo group (SARS-CoV-2 [1]; Day 7, all patients): 2.42 log copies/mL | viral load decline greater than in placebo group (SARS-CoV-2 [1]; Day 14, all patients): 1.77 log copies/mL | median time to viral clearance (SARS-CoV-2 [1]; [4]): 7 (95% CI 6.2-7.8) days | undetectable at Day 7, participants (SARS-CoV-2 [1]; [4]): 15 of 19 | undetectable at Day 7, proportion (SARS-CoV-2 [1]; [4]): 79% | OR undetectable at Day 7 vs placebo (SARS-CoV-2 [1]; [5]): 0.35 | undetectable at Day 7, participants (SARS-CoV-2 [1]; [5]): 9 of 11 | undetectable at Day 7, proportion (SARS-CoV-2 [1]; [5]): 82% | negative for SARS-CoV-2 RNA, participants (SARS-CoV-2 [1]; by Day 7, all patients): 24/30 | negative for SARS-CoV-2 RNA, proportion (SARS-CoV-2 [1]; by Day 7, all patients): 80% | viral level decrease in absolute terms (SARS-CoV-2 [1]; by Day 7, all patients): 5.5 log copies/mL | viral load decline (SARS-CoV-2 [1]; by Day 7, baseline viral load at or above 10E6 copies/mL): 7.17 log copies/mL | detectable virus at Day 7, participants (SARS-CoV-2 [1]; high baseline viral load): 4 of 19 | detectable virus at Day 7, proportion (SARS-CoV-2 [1]; high baseline viral load): 21% | OR of response at Day 7 for viral load at baseline within the IFN Lambda group (SARS-CoV-2 [1]; interaction model, all patients): 0.82 | shedding of infectious virus at day 7 (SARS-CoV-2 [1]; interferon lambda group): all subjects were below the level of shedding infectious virus at day 7 | SARS-CoV-2 MA replication in the lung (lung viral titer) (SARS-CoV-2 MA): significantly diminished | viral titer in the nasal turbinates (SARS-CoV-2 MA): did not alter | shedding cessation relative to placebo (SARS-CoV-2 [2]; seronegative at baseline): delayed shedding cessation relative to placebo | shedding cessation relative to placebo (SARS-CoV-2 [2]; seropositive at baseline): appeared to hasten shedding cessation | effect on duration of viral shedding and symptoms compared to placebo (SARS-CoV-2 [2]; single 180 mcg s.c.): neither shortened the duration of SARS-CoV-2 viral shedding nor improved symptoms | hazard ratio for duration of shedding vs. placebo (SARS-CoV-2 [2]; single 180 mcg s.c.): 0.81 | hazard ratio, time to resolution of symptoms vs. placebo (SARS-CoV-2 [2]; single 180 mcg s.c.): 0.94 | liver transaminase elevations (participants of arm) (SARS-CoV-2 [2]; single 180 mcg s.c.): 15/60 | serious adverse events reported in the arm (SARS-CoV-2 [2]; single 180 mcg s.c.): Two | tolerability (SARS-CoV-2 [2]; single 180 mcg s.c.): well tolerated | median time to cessation of viral shedding (SARS-CoV-2 [2]; single 180 mcg s.c., n=60): 7 days | deaths ([3]; 14 days): No deaths | OR symptom progression vs Placebo, All Symptoms ([3]; All samples): 3.15 | OR symptom progression vs Placebo, Fever Syndrome ([3]; All samples): 1.69 | OR symptom progression vs Placebo, Gastrointestinal ([3]; All samples): 0.48 | OR symptom progression vs Placebo, Mood ([3]; All samples): 0.90 | OR symptom progression vs Placebo, Musculoskeletal ([3]; All samples): 1.80 | OR symptom progression vs Placebo, Neurologic ([3]; All samples): 5.07 | OR symptom progression vs Placebo, Respiratory ([3]; All samples): 4.67 | OR symptom progression vs Placebo, Skin ([3]; All samples): 0.76 | OR symptom progression vs Placebo, All Symptoms [3, 6]: 1.63 | OR symptom progression vs Placebo, Fever Syndrome [3, 6]: 4.83 | OR symptom progression vs Placebo, Gastrointestinal [3, 6]: 0.40 | OR symptom progression vs Placebo, Mood [3, 6]: 0.32 | OR symptom progression vs Placebo, Musculoskeletal [3, 6]: 2.55 | OR symptom progression vs Placebo, Neurologic [3, 6]: 1.60 | OR symptom progression vs Placebo, Respiratory [3, 6]: 3.67 | OR symptom progression vs Placebo, Skin [3, 6]: 0.51 | OR symptom progression vs Placebo, All Symptoms [3, 7]: 2.39 | OR symptom progression vs Placebo, Fever Syndrome [3, 7]: 1.24 | OR symptom progression vs Placebo, Gastrointestinal [3, 7]: 0.58 | OR symptom progression vs Placebo, Mood [3, 7]: 1.29 | OR symptom progression vs Placebo, Musculoskeletal [3, 7]: 1.19 | OR symptom progression vs Placebo, Neurologic [3, 7]: 2.61 | OR symptom progression vs Placebo, Respiratory [3, 7]: 5.88 | OR symptom progression vs Placebo, Skin [3, 7]: 1.90 | Emergency Room visits ([3]; n=30): 1 | Hospital admissions ([3]; n=30): 1 | Lab Abnormalities (grade 3 or 4), Alanine aminotransferase (ALT) ([3]; n=30): 1 | Lab Abnormalities (grade 3 or 4), Aspartate aminotransferase (AST) ([3]; n=30): 1 | Lab Abnormalities (grade 3 or 4), Creatinine ([3]; n=30): 0 | Lab Abnormalities (grade 3 or 4), Hemoglobin ([3]; n=30): 0 | Lab Abnormalities (grade 3 or 4), Lymphocytes ([3]; n=30): 0 | Lab Abnormalities (grade 3 or 4), Neutrophils ([3]; n=30): 0 | Lab Abnormalities (grade 3 or 4), Platelets ([3]; n=30): 0 | Lab Abnormalities (grade 3 or 4), Total bilirubin ([3]; n=30): 0 | Lab Abnormalities (grade 3 or 4), White Blood Cells ([3]; n=30): 0 | Treatment-Related Aes ([3]; n=30): 0 | Treatment-Related SAEs ([3]; n=30): 0 | Severe Symptoms, number of patients ([3]; n=30, 14 days): 7 | Severe Symptoms, reports ([3]; n=30, 14 days): 20 | SAEs [3, 8]: 1 | SAEs [3, 9]: One | Aes [3, 8]: 2 | Aes [3, 9]: two | aminotransferase elevations compared to placebo ([3]; single 180 mcg s.c.): higher rate of transient aminotransferase elevations | tolerability ([3]; single 180 mcg s.c.): well-tolerated with few adverse events
